# In the supplement of paper PMC10567573:
# ± gives the standard deviation.
# Experiment: protein stability index of a GFP-peptide fusion (GPS, HEK-293T) (PSI 1-6); higher = more stable
# Conditions: c terminus: a fixed tail appended
# 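Also: 24-mer peptide tiles fused after GFP, lentivirally expressed, FACS-sorted into six equal bins by GFP/DsRed ratio, decoded by Illumina sequencing, PSI is the read-weighted mean bin number.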
Sequence,protein stability index (treatment: DMSO),"protein stability index (treatment: MLN4924 1 uM, 8 h)"
VPIKPPCIPNGKENFSGGTSLWQN [CAMK2D],2.65 ± 0.12,2.71 ± 0.57
VRSRLEEAGIKVHDVRLNGSAAGH [TENT5C],2.85 ± 0.43,3.21 ± 0.64
IIVSIVHSVFEFLAFKNDIQFWNS [CLPTM1],3.5 ± 0.83,2.75 ± 0.65
QVDVRFFGHHHQRAWIPSENIQDI [ZMYND11],2.74 ± 0.22,2.94 ± 0.17
SYATEADIISTVEFNHTGELLATG [PPP2R2B],3.9 ± 0.43,3.94 ± 0.32
LGLRSLIPAVLTVSMLGYPFILPD [MYORG],3.1 ± 0.55,3.07 ± 0.36
PGPQDPEESASRQRFGEALQDQEK [ELOA2],5.53 ± 0.29,5.68 ± 0.16
RRAGAACTLRQKLIFSPCSDCEEE [WEE1],4.2 ± 0.25,4.39 ± 0.15
FALQGLPLNCAPCPRRSEPVVQCQ [IRX6],2.7 ± 0.16,2.79 ± 0.28
AFYRLADLFGWSQLIYNHITTRVN [ADD1],3.25 ± 0.54,2.88 ± 0.35
KPASKPAGSSHTPSSQSSSGGGRD [ELOA2],5.47 ± 0.3,5.48 ± 0.19
TSSKVNATVPSNMMSVNGQAKTHT [ACBD3],4.38 ± 0.13,4.45 ± 0.082
QAPGQPPGNQAEHGAVTVGGTSVG [ZBTB22],4.9 ± 0.43,5.17 ± 0.21
EVAAQLPAVRQLLPCARVQICRAQ [ZSWIM9],2.42 ± 0.23,2.77 ± 0.35
LMELDMAMEPDRKAAVSHWQQQSY [CTNNB1],3.11 ± 0.19,3.33 ± 0.37
SRVKCDQYWPSRGTETHGLVQVTL [PTPRD],2.42 ± 0.39,2.05 ± 0.4
GFQPPSPSLRPRPASSISLPIGHL [DMRTC1],3.43 ± 0.21,3.44 ± 0.19
SENARLVLQIDNAKLAADDFRTKY [KRT36],4.03 ± 0.2,4 ± 0.24
AGGELGISLNMCLLGALVLLGLGV [PBXIP1],2.72 ± 1,2.7 ± 0.87
